Numbered stars: 1 amine (or outer) side, 2 acyl side, 3 side chain; on linkers, the order of the positions; unused ones are H or OH. Bridge positions count the residues as written; N and C are the ends. Side chains are listed from the residue outwards. Ends that are not written are not given here. * marks the point of attachment. C20 diacid = O=C(O)CCCCCCCCCCCCCCCCCCC(=O)*; γGlu = O=C(O)[C@H](CCC(=O)[*:2])N[*:1]
T1: human amylin receptor (amylin 3(a) receptor: human calcitonin receptor plus RAMP-3) (human, UniProt P30988 25-474; O60896 24-148)
T1 sequence (looked up) 1: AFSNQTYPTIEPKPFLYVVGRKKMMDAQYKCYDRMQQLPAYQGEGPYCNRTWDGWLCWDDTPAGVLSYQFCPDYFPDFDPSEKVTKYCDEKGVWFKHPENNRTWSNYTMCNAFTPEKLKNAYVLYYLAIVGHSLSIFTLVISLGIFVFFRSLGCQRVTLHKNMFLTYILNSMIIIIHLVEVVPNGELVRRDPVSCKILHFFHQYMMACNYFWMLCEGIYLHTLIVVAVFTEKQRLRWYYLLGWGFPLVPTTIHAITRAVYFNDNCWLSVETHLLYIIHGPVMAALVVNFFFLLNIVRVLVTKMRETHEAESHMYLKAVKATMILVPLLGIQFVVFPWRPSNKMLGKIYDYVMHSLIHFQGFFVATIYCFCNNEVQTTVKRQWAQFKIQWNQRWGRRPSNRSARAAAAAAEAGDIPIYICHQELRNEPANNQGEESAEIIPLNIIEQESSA
T1 sequence (looked up) 2: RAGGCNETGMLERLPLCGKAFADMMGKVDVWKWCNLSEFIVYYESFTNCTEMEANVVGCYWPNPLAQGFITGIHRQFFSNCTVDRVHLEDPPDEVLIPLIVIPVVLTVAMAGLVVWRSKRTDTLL

T2: human calcitonin receptor (human, UniProt P30988 25-474)
T2 sequence (looked up): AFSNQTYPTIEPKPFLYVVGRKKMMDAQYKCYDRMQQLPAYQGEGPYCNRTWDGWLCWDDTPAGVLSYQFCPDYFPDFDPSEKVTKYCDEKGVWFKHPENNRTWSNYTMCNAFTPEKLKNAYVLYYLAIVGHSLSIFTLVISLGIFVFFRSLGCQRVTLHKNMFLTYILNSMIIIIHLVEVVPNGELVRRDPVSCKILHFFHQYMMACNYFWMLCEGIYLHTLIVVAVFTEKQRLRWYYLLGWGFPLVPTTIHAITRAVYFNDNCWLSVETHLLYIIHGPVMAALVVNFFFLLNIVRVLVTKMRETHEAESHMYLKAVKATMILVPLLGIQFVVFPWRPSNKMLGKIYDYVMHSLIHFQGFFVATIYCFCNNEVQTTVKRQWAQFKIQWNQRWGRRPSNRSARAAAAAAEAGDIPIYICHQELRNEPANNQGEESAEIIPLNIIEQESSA


Tests used:
[1] = target: T1, human amylin receptor (amylin 3(a) …); assay: cell-based or functional assay
[2] = target: T2, human calcitonin receptor; assay: cell-based or functional assay
[3] = target: T1, human amylin receptor (amylin 3(a) …); assay: SPA competition binding, displacement of 125I-rat amylin, membranes of BHK amylin 3(a)/CRE-luc cells
Procedure, shortened: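 Cell membranes were prepared by homogenisation in Na-HEPES/EDTA buffer, pH 7.4, and stored at −80° C. They were then coupled to SPA beads at 35 ng/μL final and exposed to compounds in assay buffer containing CaCl2, MgCl₂, OA and Tween20. After 120 min at 25° C, plates were counted and IC₅₀ derived.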

Row | Binder | Ratio hCT/hAmylin funct. [1] | hAmylin-R funct. EC50 (pM) [1] [pM] | hCTR funct. EC50 (pM) [2] [pM] | IC50 [3] [nM]
1 | K([γGlu-C20 diacid])CNTATCATQRLAEFLRHSSPNFGAIPSSTNVGPETY-NH2 (disulfide 2-7; N-terminus assumed; SMILES CC[C@H](C)[C@H](NC(=O)[C@H](C)NC(=O)CNC(=O)[C@H](Cc1ccccc1)NC(=O)[C@H](CC(N)=O)NC(=O)[C@@H]1CCCN1C(=O)[C@H](CO)NC(=O)[C@H](CO)NC(=O)[C@H](Cc1c[nH]cn1)NC(=O)[C@H](CCCNC(=N)N)NC(=O)[C@H](CC(C)C)NC(=O)[C@H](Cc1ccccc1)NC(=O)[C@H](CCC(=O)O)NC(=O)[C@H](C)NC(=O)[C@H](CC(C)C)NC(=O)[C@H](CCCNC(=N)N)NC(=O)[C@H](CCC(N)=O)NC(=O)[C@@H](NC(=O)[C@H](C)NC(=O)[C@@H]1CSSC[C@H](NC(=O)[C@@H](N)CCCCNC(=O)CC[C@H](NC(=O)CCCCCCCCCCCCCCCCCCC(=O)O)C(=O)O)C(=O)N[C@@H](CC(N)=O)C(=O)N[C@@H]([C@@H](C)O)C(=O)N[C@@H](C)C(=O)N[C@@H]([C@@H](C)O)C(=O)N1)[C@@H](C)O)C(=O)N1CCC[C@H]1C(=O)N[C@@H](CO)C(=O)N[C@@H](CO)C(=O)N[C@H](C(=O)N[C@@H](CC(N)=O)C(=O)N[C@H](C(=O)NCC(=O)N1CCC[C@H]1C(=O)N[C@@H](CCC(=O)O)C(=O)N[C@H](C(=O)N[C@@H](Cc1ccc(O)cc1)C(N)=O)[C@@H](C)O)C(C)C)[C@@H](C)O) | 5.2 | 161 | 841 | 0.14
2 | K([γGlu-C20 diacid])CNTATCATQRLAHFLRHSSPNFGAIPSSTNVGSHTY-NH2 (disulfide 2-7; N-terminus assumed; SMILES CC[C@H](C)[C@H](NC(=O)[C@H](C)NC(=O)CNC(=O)[C@H](Cc1ccccc1)NC(=O)[C@H](CC(N)=O)NC(=O)[C@@H]1CCCN1C(=O)[C@H](CO)NC(=O)[C@H](CO)NC(=O)[C@H](Cc1c[nH]cn1)NC(=O)[C@H](CCCNC(=N)N)NC(=O)[C@H](CC(C)C)NC(=O)[C@H](Cc1ccccc1)NC(=O)[C@H](Cc1c[nH]cn1)NC(=O)[C@H](C)NC(=O)[C@H](CC(C)C)NC(=O)[C@H](CCCNC(=N)N)NC(=O)[C@H](CCC(N)=O)NC(=O)[C@@H](NC(=O)[C@H](C)NC(=O)[C@@H]1CSSC[C@H](NC(=O)[C@@H](N)CCCCNC(=O)CC[C@H](NC(=O)CCCCCCCCCCCCCCCCCCC(=O)O)C(=O)O)C(=O)N[C@@H](CC(N)=O)C(=O)N[C@@H]([C@@H](C)O)C(=O)N[C@@H](C)C(=O)N[C@@H]([C@@H](C)O)C(=O)N1)[C@@H](C)O)C(=O)N1CCC[C@H]1C(=O)N[C@@H](CO)C(=O)N[C@@H](CO)C(=O)N[C@H](C(=O)N[C@@H](CC(N)=O)C(=O)N[C@H](C(=O)NCC(=O)N[C@@H](CO)C(=O)N[C@@H](Cc1c[nH]cn1)C(=O)N[C@H](C(=O)N[C@@H](Cc1ccc(O)cc1)C(N)=O)[C@@H](C)O)C(C)C)[C@@H](C)O, also called compound 66) | 20.1 | 27 | 542 | 0.396
3 | K([γGlu-C20 diacid])CNTATCATQRLAEFLRHSSPNFGAIPSSTNVGPHTY-NH2 (disulfide 2-7) |  | 101 | 1450 | 0.179

Other lines, results leading:

Row | Ratio hCT/hAmylin funct. [1] | hAmylin-R funct. EC50 (pM) [1] [pM] | hCTR funct. EC50 (pM) [2] [pM] | IC50 [3] [nM] | Binder
4 | 5.3 | 159 | 843 | 0.172 | K([γGlu-γGlu-C20 diacid])CNTATCATQRLADFLRHSSPNFGAIPSSTNVGPETY-NH2 (disulfide 2-7)
5 |  | 703 | 7430 | 0.957 | K([γGlu-γGlu-C20 diacid])CNTATCATQRLAEFLRHSSPNFGAIPSSTNVGRETY-NH2 (disulfide 2-7; N-terminus assumed; SMILES CC[C@H](C)[C@H](NC(=O)[C@H](C)NC(=O)CNC(=O)[C@H](Cc1ccccc1)NC(=O)[C@H](CC(N)=O)NC(=O)[C@@H]1CCCN1C(=O)[C@H](CO)NC(=O)[C@H](CO)NC(=O)[C@H](Cc1c[nH]cn1)NC(=O)[C@H](CCCNC(=N)N)NC(=O)[C@H](CC(C)C)NC(=O)[C@H](Cc1ccccc1)NC(=O)[C@H](CCC(=O)O)NC(=O)[C@H](C)NC(=O)[C@H](CC(C)C)NC(=O)[C@H](CCCNC(=N)N)NC(=O)[C@H](CCC(N)=O)NC(=O)[C@@H](NC(=O)[C@H](C)NC(=O)[C@@H]1CSSC[C@H](NC(=O)[C@@H](N)CCCCNC(=O)CC[C@H](NC(=O)CC[C@H](NC(=O)CCCCCCCCCCCCCCCCCCC(=O)O)C(=O)O)C(=O)O)C(=O)N[C@@H](CC(N)=O)C(=O)N[C@@H]([C@@H](C)O)C(=O)N[C@@H](C)C(=O)N[C@@H]([C@@H](C)O)C(=O)N1)[C@@H](C)O)C(=O)N1CCC[C@H]1C(=O)N[C@@H](CO)C(=O)N[C@@H](CO)C(=O)N[C@H](C(=O)N[C@@H](CC(N)=O)C(=O)N[C@H](C(=O)NCC(=O)N[C@@H](CCCNC(=N)N)C(=O)N[C@@H](CCC(=O)O)C(=O)N[C@H](C(=O)N[C@@H](Cc1ccc(O)cc1)C(N)=O)[C@@H](C)O)C(C)C)[C@@H](C)O)
6 | 0.8 | 132 | 102 | 0.533 | K([γGlu-γGlu-C20 diacid])CNTATCATQRLAEFLRHSSPNFGAIPSSTNVGPETP-NH2 (disulfide 2-7; N-terminus assumed; SMILES CC[C@H](C)[C@H](NC(=O)[C@H](C)NC(=O)CNC(=O)[C@H](Cc1ccccc1)NC(=O)[C@H](CC(N)=O)NC(=O)[C@@H]1CCCN1C(=O)[C@H](CO)NC(=O)[C@H](CO)NC(=O)[C@H](Cc1c[nH]cn1)NC(=O)[C@H](CCCNC(=N)N)NC(=O)[C@H](CC(C)C)NC(=O)[C@H](Cc1ccccc1)NC(=O)[C@H](CCC(=O)O)NC(=O)[C@H](C)NC(=O)[C@H](CC(C)C)NC(=O)[C@H](CCCNC(=N)N)NC(=O)[C@H](CCC(N)=O)NC(=O)[C@@H](NC(=O)[C@H](C)NC(=O)[C@@H]1CSSC[C@H](NC(=O)[C@@H](N)CCCCNC(=O)CC[C@H](NC(=O)CC[C@H](NC(=O)CCCCCCCCCCCCCCCCCCC(=O)O)C(=O)O)C(=O)O)C(=O)N[C@@H](CC(N)=O)C(=O)N[C@@H]([C@@H](C)O)C(=O)N[C@@H](C)C(=O)N[C@@H]([C@@H](C)O)C(=O)N1)[C@@H](C)O)C(=O)N1CCC[C@H]1C(=O)N[C@@H](CO)C(=O)N[C@@H](CO)C(=O)N[C@H](C(=O)N[C@@H](CC(N)=O)C(=O)N[C@H](C(=O)NCC(=O)N1CCC[C@H]1C(=O)N[C@@H](CCC(=O)O)C(=O)N[C@H](C(=O)N1CCC[C@H]1C(N)=O)[C@@H](C)O)C(C)C)[C@@H](C)O)
7 |  | 445 | 7050 | 0.525 | K([γGlu-γGlu-C20 diacid])CNTATCATQRLAEFLRHSSPNFGAIPSSTNVGHETY-NH2 (disulfide 2-7; N-terminus assumed; SMILES CC[C@H](C)[C@H](NC(=O)[C@H](C)NC(=O)CNC(=O)[C@H](Cc1ccccc1)NC(=O)[C@H](CC(N)=O)NC(=O)[C@@H]1CCCN1C(=O)[C@H](CO)NC(=O)[C@H](CO)NC(=O)[C@H](Cc1c[nH]cn1)NC(=O)[C@H](CCCNC(=N)N)NC(=O)[C@H](CC(C)C)NC(=O)[C@H](Cc1ccccc1)NC(=O)[C@H](CCC(=O)O)NC(=O)[C@H](C)NC(=O)[C@H](CC(C)C)NC(=O)[C@H](CCCNC(=N)N)NC(=O)[C@H](CCC(N)=O)NC(=O)[C@@H](NC(=O)[C@H](C)NC(=O)[C@@H]1CSSC[C@H](NC(=O)[C@@H](N)CCCCNC(=O)CC[C@H](NC(=O)CC[C@H](NC(=O)CCCCCCCCCCCCCCCCCCC(=O)O)C(=O)O)C(=O)O)C(=O)N[C@@H](CC(N)=O)C(=O)N[C@@H]([C@@H](C)O)C(=O)N[C@@H](C)C(=O)N[C@@H]([C@@H](C)O)C(=O)N1)[C@@H](C)O)C(=O)N1CCC[C@H]1C(=O)N[C@@H](CO)C(=O)N[C@@H](CO)C(=O)N[C@H](C(=O)N[C@@H](CC(N)=O)C(=O)N[C@H](C(=O)NCC(=O)N[C@@H](Cc1c[nH]cn1)C(=O)N[C@@H](CCC(=O)O)C(=O)N[C@H](C(=O)N[C@@H](Cc1ccc(O)cc1)C(N)=O)[C@@H](C)O)C(C)C)[C@@H](C)O)
